Measurements taken from publication PMC10419500, “FvWRKY50 is an important gene that regulates both vegetative growth and reproductive growth in strawberry”.

Molecular target: FvWRKY50-His (Fragaria vesca? (diploid strawberry; …, UniProt A0A2H4G369 6-213)
Test: EMSA; 200-fold unlabeled probe used as competitor; EMSA buffer, salt, pH and temperature not given in the material
Conditions: protein: recombinant, tags: His (pET30a; also written His-FvWRKY50), blunt

Chain of FvWRKY50-His (Fragaria vesca? (A0A2H4G369 entry or part of it): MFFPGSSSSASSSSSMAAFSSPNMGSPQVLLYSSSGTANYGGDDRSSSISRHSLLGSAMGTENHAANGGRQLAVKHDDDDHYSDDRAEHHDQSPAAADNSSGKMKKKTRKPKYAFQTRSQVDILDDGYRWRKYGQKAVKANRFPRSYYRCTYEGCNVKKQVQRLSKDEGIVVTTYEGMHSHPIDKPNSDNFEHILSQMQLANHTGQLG

B1: proDFR probe W290 (dsDNA)
DNA 1: CTTATATCCACATCTTGACCGTTCAGTTTATAG
DNA 2: CTATAAACTGAACGGTCAAGATGTGGATATAAG
**Q.** Does B1 bind?
**A.** binds

B2: proFT3 probe W982 (dsDNA)
DNA 1: GATCCATTTCCATTGACCAGACTCACCTCAC
DNA 2: GTGAGGTGAGTCTGGTCAATGGAAATGGATC
**Q.** Does B2 bind (label: biotin)?
**A.** binds

B3: proCHI probe W1610 (dsDNA)
DNA 1: CTCATTTTACCAAGTTGACCCCTTCATTTG
DNA 2: CAAATGAAGGGGTCAACTTGGTAAAATGAG
**Q.** Does B3 bind?
**A.** binds
